Test results taken from the supplement of paper PMC9170038.

Tested on: MS2 coat protein
Test: apparent KD of MS2 coat protein; designed switch direction (-1 OFF switch, 1 ON switch): -1; higher = weaker reporter binding
Outline: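 The reported apparent KD is a per-design median over clusters, from curve fits of normalised cluster fluorescence. Protein titrations used SNAP-549-labelled MS2 coat protein, doubled from 0.7 or 1.5 nM to 3 µM, in Tris-HCl pH 7.5 buffer with KCl, MgCl2, BSA, DTT, tRNA and Tween-20, with no input, 200 uM small-molecule ligand, or an oligonucleotide input. The RNA switches were transcribed on Illumina chips by stalled E. coli RNA polymerase.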

[1] = Eterna round: R95, input ligand: microRNA oligo, concentration not stated
[2] = input ligand: microRNA oligo, concentration not stated
[3] = Eterna round: R95, input ligand: FMN 200 uM
[4] = Eterna round: R95, input ligand: none

| Sequence | apparent KD of MS2 coat protein [1] | apparent KD of MS2 coat protein (input ligand: FMN 200 uM) | apparent KD of MS2 coat protein [2] | apparent KD of MS2 coat protein (input ligand: none) | apparent KD of MS2 coat protein [3] | apparent KD of MS2 coat protein [4] |
| --- | --- | --- | --- | --- | --- | --- |
| GGUUAUUGCAAGGAUAUGCUUUUUUGUGAAAUUGCAGAAGGUGCAACAUGAGGAUCACCCAUGUUGGAUGGGUU [JR_E6_Sub017] (puzzle: Exclusion 6) | 93.7 nM | – | – | – | – | – |
| GGUUAUUGCAAGGAUAUGCUUUUUUUUGAAAUUGCAGAAGGUGCAACAUGAGGAUCACCCAUGUUGGAUGGGUU [JR_E6_Sub018] (Eterna round: R96, puzzle: Exclusion 6) | – | 252 nM | 161 nM | 194 nM | – | – |
| GGUUAUUGCAAGGAUAUGCUUUUUUUUGAAAUUGCAGAAGGUGCAACAUGAGGAUCACCCAUGUUGGAUGGGUU [JR_E6_Sub018] (puzzle: Exclusion 6) | 106 nM | – | – | – | – | – |
| GGUUGCGCAGGAUAUACAUGAGGAUCACCCAUGUGAGAGAAAUAAGUGAGGAAGAAAAGUAGAAGGGCGUGACA [Mat - Exclusion 3 - Mod of Salish D75] (puzzle: Exclusion 3) | 45.3 nM | – | – | – | 175 nM | 58.9 nM |
| GGUUGGCGAGGAUAUACAUGAGGAUCACCCAUGUGAGAAAUAAAAGUGAGGAAGAAAAGUAGAAGGCGCUGACG [Mat - Exclusion 3 - Mod of Salish D3] (puzzle: Exclusion 3) | 50.4 nM | – | – | – | 188 nM | 83.9 nM |
| GGUUGGCGAGGAUAUACAUGAGGAUCACCCAUGUGAGAGAAAAAAGUGAGGAAGAAACGUAGAAGGCGCUGACG [salish99_ex3_r3_037] (puzzle: Exclusion 3) | 34.2 nM | – | – | – | 42.6 nM | 45.2 nM |
| GUAAACGUAUAGGAUAUUUCAGGUCAAAGCUGCAAAGAAGGAUACACAUGAGGAUCACCCAUGUGGUCAAUAAA [Mod of Quesina 23 - Jieux - Exclusion 6] (Eterna round: R97, puzzle: Exclusion 6) | – | 42.2 nM | – | 20.4 nM | – | – |
| GUAAAUCAUGUAGGAUAUGCGUGGCGAAGCUAUGCAGAAGGACAUGAGGAUCACCCAUGUGCUUGCGUCCGCGUACGGAUGCAA [Mat - Exclusion NG 1 - Mod of JL - D70] (Eterna round: R96, puzzle: Exclusion NG 1) | – | 292 nM | 124 nM | 237 nM | – | – |
| GUAACAUGCUGGUGAUCAUACAUGAGGAUCACCCAUGUAACAAGCUUUUUGCUCGUCUUAAUUUAAUUGAUUACUAG [Stov1/8-A2] (Eterna round: R97, puzzle: Sensor, turn-off variant 1) | – | 137 nM | – | 106 nM | – | – |
| GUACCCAAAGGAUAUACUUGAGGAUCACCCAAGUAUGUCGCUUGGGCACGGUAAAGGAGUAGAAGGUUGGGAAG [Aedti] (Eterna round: R97, puzzle: Exclusion 3) | – | 12.5 nM | – | 11.8 nM | – | – |
| GUACUGAAGCUUUGCUUUAGUCGUACAUGAGGAUCACCCAUGUAGGAUAUGGUAGGCUUUGCUUACUAGAAGGAUAGAGUGAUC [JL EXNG3 1.27] (Eterna round: R96, puzzle: Exclusion NG 3) | – | 81.7 nM | 31.7 nM | 119 nM | – | – |
| GUAGAGUAAGGAUAUACUGAAUAGGAUAGAAUGGUUAGAAAGUAGAAGGUACAUGAGGAUCACCCAUGUAAUGU [Excluse me!!!! 19 - Jieux - Exclusion 4] (Eterna round: R96, puzzle: Exclusion 4) | – | 20.9 nM | 18.6 nM | 24 nM | – | – |
| GUAGAGUAAGGAUAUACUGAAUAGGAUAGAAUGGUUAGAAAGUAGAAGGUACAUGAGGAUCACCCAUGUAAUGU [Excluse me!!!! 19 - Jieux - Exclusion 4] (puzzle: Exclusion 4) | 20.4 nM | – | – | – | – | – |
| GUAGAGUCAGGAUAUACAAGAUCGAUAGAUCGGCGAUCCAUACAUGAGGAUCACCCAUGUAGAAGGGACUCUAC [Mat - Exclusion 2 - Eli Mod - D3] (Eterna round: R97, puzzle: Exclusion 2) | – | 693 nM | – | 40.2 nM | – | – |
| GUAGAGUCAGGAUAUACGAGAUCGAAAGAUCGGCGAUCCAUACAUGAGGAUCACCCAUGUAGAAGGGACUCUAC [ChP 11-04-2015 #5] (Eterna round: R96, puzzle: Exclusion 2) | – | 177 nM | 14.8 nM | 19.1 nM | – | – |
| GUAGAGUCAGGAUAUACGAGAUCGAAAGAUCGGCGAUCCAUACAUGAGGAUCACCCAUGUAGAAGGGACUCUAC [ChP 11-04-2015 #5] (puzzle: Exclusion 2) | 14.2 nM | – | – | – | – | – |

| Sequence | apparent KD of MS2 coat protein [1] | apparent KD of MS2 coat protein (input ligand: FMN 200 uM) | apparent KD of MS2 coat protein [2] | apparent KD of MS2 coat protein (input ligand: none) | apparent KD of MS2 coat protein [3] | apparent KD of MS2 coat protein [4] |
| --- | --- | --- | --- | --- | --- | --- |
| GUAGAGUGAGGAUAUACAAGAUCGAAAGAUCGGCGAUCCAUACAUGAGGAUCACCCAUGUAGAAGGCACUCUAC [Eli x2 4.007] (Eterna round: R97, puzzle: Exclusion 2) | – | 678 nM | – | 102 nM | – | – |
| GUAGGGUCAGGAUAUACGGGCGGGAGGAUGUAUUGUAGUUGGUAGAAGGGACAUGAGGAUCACCCAUGUGAGAA [JR_Exclu4_Sub054] (puzzle: Exclusion 4) | 31 nM | – | – | – | – | – |
| GUAUGUAACUAGGAUAUCAGCAUACUUCAAUGUUGAGAAGGAGUUACAUGAGGAUCACCCAUGUAUCCAACAUG [Exclusion 6 - 3:b] (puzzle: Exclusion 6) | 52.5 nM | – | – | – | 43.4 nM | 69.1 nM |
| GUCACAUGGGUAUAGGAUCACAUGAGGAUCACCCAUGUGACUAACAAGCUUUUUGCUCGUCUUAUGUCUAUGUGAAG [Stov1/18-A1] (Eterna round: R97, puzzle: Sensor, turn-off variant 1) | – | 42.9 nM | – | 26.9 nM | – | – |
| GUCACUAGAGGAUAUACAAUGGUAUAUGAUCCUAGAGACAAACAUGAGGAUCACCCAUGUAGAAGGCUAGUAAA [Exclusion 2 - 1] (puzzle: Exclusion 2) | 153 nM | – | – | – | 32.1 nM | 89.5 nM |
| GUCAGACGAGGAUAUAGAUUUAAGUACAUGAGGAUCACCCAUGUGCAUAUGUAUUUAGAUUUAGAAGGCGUCUGAC [E5/18-A3] (Eterna round: R97, puzzle: Exclusion 5) | – | 584 nM | – | 428 nM | – | – |
| GUCAGCUCGUGAGGAUAUACAUGAUAGAUCGAUUAAUUAAUUAAUUUAACAUGAGGAUCACCCAUGUAGAAGGUACGAGCUGAC [ENG2/1-C1] (Eterna round: R96, puzzle: Exclusion NG 2) | – | – | 43.3 nM | – | – | – |
| GUCAGCUCGUGAGGAUAUACAUGCGUGCUUCGGCACGUAUGAUAGAUCACAUGAGGAUCACCCAUGUAGAAGGUACGAGCUGAC [ENG2/4-C1] (Eterna round: R96, puzzle: Exclusion NG 2) | – | 13.4 nM | 12.2 nM | 14.8 nM | – | – |
| GUCAUACAUGAGGAUCACCCAUGUGAGGAUAUGAGUGGUGCUGCUAGGUAGUAUAGACUCAGAAGGCGCAUGAU [Malcxlusion 1 - Jieux - Exclusion 1] (Eterna round: R97, puzzle: Exclusion 1) | – | 288 nM | – | 105 nM | – | – |
| GUCAUACAUGAGGAUCACCCAUGUGAGGAUAUGGGCGGCGCCGCAAAAGCGGCGCCGCCCAGAAGGCGCAUGAU [Malcxlusion 5 - Jieux - Exclusion 1] (Eterna round: R97, puzzle: Exclusion 1) | – | 195 nM | – | 71.5 nM | – | – |
| GUCAUCAAACAUGGGAUCAACAUGAGGAUCACCCAUGUUGACAAGUUUUUUGCUCGUCUUAUAAUAAGUUUGAUGAC [Antenna 9 - Jieux - Sensor, turn-off variant 1] (Eterna round: R97, puzzle: Sensor, turn-off variant 1) | – | 15.5 nM | – | 16.2 nM | – | – |
| GUCAUCACACAUGGGAUCAACAUGAGGAUCACCCAUGUUGUCAAGUUUUUUGCUCGUCUUAUAAUACGUUUGAUGAC [Mod-Jxc] (Eterna round: R97, puzzle: Sensor, turn-off variant 1) | – | 26.7 nM | – | – | – | – |
| GUCCGGCAUGUAGGAUAUGGAUCCGAUUAGGAUUUAGAAGGACAUGAGGAUCACCCAUGUACAUUUAAUUAGUCAUUACCGGAC [EXclNG1-LROPPY03] (Eterna round: R96, puzzle: Exclusion NG 1) | – | 14.6 nM | 9.47 nM | 14.9 nM | – | – |
| GUCCUACAUGAGGAUCACCCAUGUGAGGAUAUGCGGUUAGCUGCUAGGUAGUUAGUAUGCAGAAGGCGCGUGAA [EX1 #80] (Eterna round: R97, puzzle: Exclusion 1) | – | 15.9 nM | – | 14 nM | – | – |
| GUCCUCAUGACAUGAGGAUCACCCAUGUAUUAUUUGUUAACUGAGGAUAUACUCUUAAUGUUUAUGUAGAAGGCAGAUUCGGUC [JR_ExcNG3_Sub019] (Eterna round: R96, puzzle: Exclusion NG 3) | – | 51.6 nM | 37.8 nM | 40.7 nM | – | – |
